System: MS2 coat protein
Experiment: apparent KD of MS2 coat protein; designed switch direction (-1 OFF switch, 1 ON switch): -1; higher = weaker reporter binding
Method in brief: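 Designed RNA switches with common flanks were transcribed on Illumina chips by stalled E. coli RNA polymerase and titrated with SNAP-549-labelled MS2 coat protein, from 0.7 or 1.5 nM doubling to 3 µM, in Tris-HCl pH 7.5 buffer with KCl, MgCl2, BSA, DTT, tRNA and Tween-20. Steps lasted 0.8–1.5 h (lowest) to 10–20 min (highest). Titrations ran without input, with 200 uM small-molecule ligand, or with an oligonucleotide input. Normalised cluster fluorescence was curve-fitted, and apparent KD is the per-design median over clusters.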

[1] = input ligand: microRNA oligo, concentration not stated
[2] = Eterna round: R95, input ligand: FMN 200 uM
[3] = Eterna round: R95, input ligand: microRNA oligo, concentration not stated
[4] = Eterna round: R95, input ligand: none

Sequence	apparent KD of MS2 coat protein (input ligand: FMN 200 uM) [nM]	apparent KD of MS2 coat protein (input ligand: none) [nM]	apparent KD of MS2 coat protein [1] [nM]	apparent KD of MS2 coat protein [2] [nM]	apparent KD of MS2 coat protein [3] [nM]	apparent KD of MS2 coat protein [4] [nM]
CCCACAAGCUUUUUGCUCGACAUGAGGAUCACCCAUGUUGAAUGGGUUAGAUGUGUGUGAAACAUAUAUAUUUACCU [-24.2, -47 kcal, A 27%] (Eterna round: R97, puzzle: Sensor, turn-off variant 1)	25.5	26.4	–	–	–	–
CCCACAGGCUUUUUGCUCGACAUGAGGAUCACCCAUGUUGAAUGGGUUGUGUGUGUGUGAUACAUAUAUAUGGUCCU [-25.5, -50.5 kcal, A 21%] (Eterna round: R97, puzzle: Sensor, turn-off variant 1)	142	158	–	–	–	–
CCCAGUUAGGAAGGAUAUUGUACAUGAGGAUCACCCAUGUAAUAAAUGAGGAUCACGGAUGUAUACAAGAAGGUCCGGAUAGGC [Ostracism 9 - Jieux - Exclusion NG 2] (Eterna round: R96, puzzle: Exclusion NG 2)	–	–	59.3	–	–	–
CCCAGUUAGGAAGGAUAUUGUACAUGAGGAUCACCCAUGUAAUAAAUGAGGAUCUCGGAUGUAUACAAGAAGGUCCGGAUAGGC [Ostracism 10 - Jieux - Exclusion NG 2] (Eterna round: R96, puzzle: Exclusion NG 2)	–	–	58.5	–	–	–
CCCAUGCCUGAGGAUAUGCUGUACAAAAGUACUGCAGAAGGCGGGACAUGAGGAUCACCCAUGUGGCGAAAGCC [Omei Ex G6] (Eterna round: R97, puzzle: Exclusion 6)	67	326	–	–	–	–
CCCAUGUCAGGAUAUUAAUUGGACGGGAAAUCCCGCCCACUUGAGAAGGGACAUGAGGAUCACCCAUGUAAAAC [Esatedbe] (Eterna round: R97, puzzle: Exclusion 4)	54.7	385	–	–	–	–
CCCGGGUUUGUGAGGAUAUCGGGCCCGAAAGGGCCCGAGAAGGCACAUGAGGAUCACCCAUGUAAGGGCCCGGG [-42.9, -40.9 kcal, A 23%, 0-5cbis] (Eterna round: R97, puzzle: Brourd's mod of Exclusion 4)	29.3	26.1	–	–	–	–
CCCGUCGAUGUAGGAUAUGCCCGGGUCUCCCGGGCAGAAGGACAUGAGGAUCACCCAUGUUCAUGAGGAUCACCCGUGAAUGGG [Double but mutated MS2] (Eterna round: R96, puzzle: Exclusion NG 1)	13.1	16.3	13	–	–	–
CCCGUCGAUGUAGGAUAUGCCCGGGUCUCCCGGGCAGAAGGACAUGAGGAUCACCCAUGUUGAUGAGGAUCACCCAUCAAUGGG [Double but mutated MS2] (Eterna round: R96, puzzle: Exclusion NG 1)	16.9	20.7	15.8	–	–	–
CCCGUGUUAGGAUAUAUGGAAGAGCGGACGGGCGCUCCAAGGUAGAAGGAACAUGAGGAUCACCCAUGUAAUAA [Teleerdion] (Eterna round: R97, puzzle: Exclusion 4)	42.6	28.6	–	–	–	–
CCCUCACAUGAGGAUCACCCAUGUCAGGAUAUCUCAGUGCGUCCACACGGACACAUCAAGAGAAGGGACAAAAC [Maceedesbi] (Eterna round: R97, puzzle: Exclusion 1)	26.3	18.6	–	–	–	–
CCCUUGUGAGGAUAUUUUUAAAAUGCUAACCACAAUUUUAUGAAGAAGGUACAUGAGGAUCACCCAUGUUUCUC [Tried to obey the law of the pack] (Eterna round: R97, puzzle: Exclusion 4)	20	21	–	–	–	–
CCGAAAAGGAAGGAUAUGCUUGACGAAAGUCAAGCAGAAGGUCCUACAUGAGGAUCACCCAUGUGGUCCUUCGG [Mat - Exclusion 6 - Eli Mod - D36] (Eterna round: R97, puzzle: Exclusion 6)	629	450	–	–	–	–
CCGAAGUGGCGGUCCUAUGACAUGAGGAUCACCCAUGUACUUCGCCACAAGCUUUUUGCUCAUCUUAUAGUUCUCGG [Ator] (puzzle: Sensor v3, turn-off variant 1)	–	–	–	16.4	25.1	16.4
CCGACGUGAGGAUAUUAGAACGAGCAGACCUGAGCUCGUUCUGAGAAGGCACAUGAGGAUCACCCAUGUGAGAA [Eternabot (Original) Solution 50] (Eterna round: R97, puzzle: Exclusion 4)	352	31.4	–	–	–	–
CCGAGCAGACGGAGAUCCAACAUGAGGAUCACCCAUGUCUCAAAAGCUUUUUGCUCGUCUUAUCCUCCUCUGUUCUC [Legedi] (puzzle: Sensor v3, turn-off variant 1)	–	–	–	27.6	200	25.7
CCGCAAAUGCAGGAUAUCGUAUCGGAUACGAUACGAGAAGGGUAUACAUGAGGAUCACCCAUGUGUCCUAGCGG [Fiskers Ex 6 - 45] (puzzle: Exclusion 6)	–	–	–	23.9	20.3	21.5
CCGCAAAUGGAGGAUAUCGUAUCGGAUACGAUACGAGAAGGCCAAACAUGAGGAUCACCCAUGUGUCCUAGCGG [Fiskers Ex 6 - 37] (puzzle: Exclusion 6)	–	–	–	30	14.2	18.6
CCGCUCCGUGUAGGAUAUUGGCGUGCCCUGCGCCGAGAAGGACAUGAGGAUCACCCAUGUAUGUUAUUAUCACGCGUGGCGCAU [Design 77] (Eterna round: R96, puzzle: Exclusion NG 1)	32.2	22	16.7	–	–	–
CCGGAAAGGAAGGAUAUGCUAGACGAUAGUCUAGCAGAAGGUCCUACAUGAGGAUCACCCAUGUGGUCCUCCGG [Mat - Exclusion 6 - Eli Mod - D33] (Eterna round: R97, puzzle: Exclusion 6)	274	1210	–	–	–	–
CCGGAAAUGUAGGAUAUAGGAGUCGAUAGACACCUAGAAGGGCAUACAUGAGGAUCACCCAUGUGUCCUACCGG [Fiskers Ex 6 - 80] (puzzle: Exclusion 6)	–	–	–	–	11.8	–
CCGGCAUGAGGAUAUCCAUCUGGAUCAGACAAGAUCCUGAUGGAGAAGGCACAUGAGGAUCACCCAUGUUACGG [Mat - Exclusion 4 - Eli Mod - D56] (Eterna round: R97, puzzle: Exclusion 4)	61.8	132	–	–	–	–
CCGGCUGCUGUGAGGAUAUGCCUGUGGGUGCGUGGGUAGAAGGCACAUGAGGAUCACCCAUGUCCUGCGGUCCC [salish99_bmx4_r4_113] (Eterna round: R97, puzzle: Brourd's mod of Exclusion 4)	63.9	66	–	–	–	–
CCGGCUUAGGAGGAUAUCCCACCCGAAAGGGUGGGAGAAGGCCUAACAUGAGGAUCACCCAUGUGUCCUACCGG [Mod of Eli 15 - Jieux - Exclusion 6] (Eterna round: R97, puzzle: Exclusion 6)	91.2	25.5	–	–	–	–
CCGGUUCAUUAGGAUAUGCAGGUGAACGGUGCCGUAGAAGGAAUGACAUGAGGAUCACCCAUGUAGAGGAAGUG [Eternabot (L2) Solution 82] (Eterna round: R97, puzzle: Exclusion 6)	36.8	55.1	–	–	–	–
